# Laboratory results: paper PMC4374960 (2015)
# B1: CarDNt, the 179-residue N-terminal domain of Myxococcus xanthus CarD (in pKT25) [Myxococcus xanthus] / Mxβ_(19–148), M. xanthus RNA polymerase β subunit fragment spanning residues 19 to 148 (in pUT18C) [Myxococcus xanthus] (parent complex)
# chain 1: MPEGSASLQLAVGDRVVYPNQGVCRVSAIDVKEVAGQKLTFVTMRREEDGAVVMVPEGKVLAIGVRKVASAEDVEAIFTFLRSDSDKADLDWKQRARTNLDRMTQGGIMGLAEVVKGLQVLSELRPLPTKERELYDNARHLLVTEVAAALGTAEVNAEDAIDIVLFPPGRERPKRTAAE
# chain 2: AKIIDIPNLINIQKQSYEKFLQADIAADKREDLGLQGVFKSVFPIRDFNETSSLEFVSYHLERPKYDVDECHQRGMTYSAPIKVVVRLVVWDKDEETGAQSIRDVKEQEVYFGEIPLMTQNGTFIINGTE
# Variants of: B1
# Assay: BACTH analysis (β-Gal activity); Mxβ19–148 mutants in pUT18C; CarDNt in pKT25; mean and standard error of three independent experiments; parent: 2.6e+03; read off a plot
row,Variant,response
1,chain 2 AKIIDIPNLINIQKQSYEKFLQADIAADKREDLGLQGVFKSVFPIRDFNETSSLEFVSYHLERPKYDVDECHQRGMTYSAPIKVVVRLVVWDKDEETGAQSIRDVAEQEVYFGEIPLMTQNGTFIINGTE [chain 2 K106A],~2100
2,chain 2 AKIIDIPNLINIQKQSYEKFLQADIAADKREDLGLQGVFKSVFPIRDFNETSSLEFVSYHLERPKYDVDECHQRGMTYSAPIKVVVRLVVWDKDEETGAQSIRDAKEQEVYFGEIPLMTQNGTFIINGTE [chain 2 V105A],~610
3,chain 2 AKIIDIPNLINIQKQSYEKFLQADIAADKREDLGLQGVFKSVFPIRDFNETSSLEFVSYHLERPKYDVDECHQRGMTYSAPIKVVVRLVVWDKDEETGAQSIRDVKAQEVYFGEIPLMTQNGTFIINGTE [chain 2 E107A],~90
4,chain 2 AKIIDIPNLINIQKQSYEKFLQADIAADKREDLGLQGVFKSVFPIRDFNETSSLEFVSYHLERPKYDVDECHQRGMTYSAPIKVVVRLVVWDKDEETGAQSIRAVKEQEVYFGEIPLMTQNGTFIINGTE [chain 2 D104A],~1800

# Variants of: B1
# Assay: BACTH analysis (β-Gal activity); CarDNt mutants in pKT25; Mxβ19–148 in pUT18C; mean and standard error of three independent experiments; parent: 2.7e+03; read off a plot
row,Variant,response
1,chain 1 MPEGSASLQLAVGDRVVYPNQGVCRVSAIDVKEVAGQKLTFVTMRREEDGAVVAVPEGKVLAIGVRKVASAEDVEAIFTFLRSDSDKADLDWKQRARTNLDRMTQGGIMGLAEVVKGLQVLSELRPLPTKERELYDNARHLLVTEVAAALGTAEVNAEDAIDIVLFPPGRERPKRTAAE [chain 1 M54A],~130
2,chain 1 MPEGSASLQLAVGDRVVYPNQGVCRVSAIDVKEVAGQKLTAVTMRREEDGAVVMVPEGKVLAIGVRKVASAEDVEAIFTFLRSDSDKADLDWKQRARTNLDRMTQGGIMGLAEVVKGLQVLSELRPLPTKERELYDNARHLLVTEVAAALGTAEVNAEDAIDIVLFPPGRERPKRTAAE [chain 1 F41A],~130
3,chain 1 MPEGSASLQLAVGDRVVYPNQGVCRVSAIDVKEVAGQKLTFVTMRREEDGAVVMVAEGKVLAIGVRKVASAEDVEAIFTFLRSDSDKADLDWKQRARTNLDRMTQGGIMGLAEVVKGLQVLSELRPLPTKERELYDNARHLLVTEVAAALGTAEVNAEDAIDIVLFPPGRERPKRTAAE [chain 1 P56A],~230
